Patent US20210206841A1 (RESEARCH INSTITUTE AT NATIONWIDE CHILDREN S HOSPITAL, published 2021)
Where a chain is given by its changes, count along the chain named.

T1: native IHFNTHI (integration host factor of nontypeable Haemophilus influenzae) (nontypeable Haemophilus influenzae …, UniProt P43723 1-96; P43724 1-94)
T1 construct: also called NTHI IHF
T1 sequence 1: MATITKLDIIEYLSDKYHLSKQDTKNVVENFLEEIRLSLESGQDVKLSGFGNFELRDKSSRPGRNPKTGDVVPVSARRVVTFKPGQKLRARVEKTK
T1 sequence 2: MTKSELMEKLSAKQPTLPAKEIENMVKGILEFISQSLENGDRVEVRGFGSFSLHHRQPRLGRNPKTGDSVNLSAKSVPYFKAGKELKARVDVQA

T2: tip-chimeric peptide IhfA5-mIhfB4NTHI (nontypeable Haemophilus influenzae …)
T2 construct: also called IHF(NTHI) tip chimeric peptide; IHFNTHI tip chimeric peptide
T2 peptide: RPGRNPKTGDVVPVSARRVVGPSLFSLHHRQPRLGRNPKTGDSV

T3: tail-chimeric peptide IhfA3-IhfB2NTHI (nontypeable Haemophilus influenzae …)
T3 construct: also called IHF(NTHI) tail chimeric peptide; IHFNTHI tail chimeric peptide
T3 peptide: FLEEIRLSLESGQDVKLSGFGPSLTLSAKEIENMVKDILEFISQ

B1: humanized anti-tip monoclonal antibody, heavy chain SEQ ID NO: 2 and light chain SEQ ID NO: 8 (antibody, V domains shown)
VH: EVQLVESGGGLVQPGGSLRLSCAASGFTFRTYAMSWVRQAPGKGLEWVATIGSDRRHTYYPDSVKGRFTISRDNSKNTLYLQMNSLRAEDTAVYYCVGPYDGYYGEFDYWGQGTLVTVSS
VL: DVVMTQSPLSLPVTLGQPASISCRSSQSLLDSDGKTFLNWLQQRPGQSPRRLIYLVSKRDSGVPDRFSGSGSGTDFTLKISRVEAEDVGVYYCWQGTHFPYTFGQGTKLEIKR
notes: also called H10211 (1F8.F1 Humanized HC2) + L10211 (1F8.F1 Humanized LC2)
B2: humanized anti-tail monoclonal antibody, heavy chain SEQ ID NO: 4 and light chain SEQ ID NO: 10 (antibody, V domains shown)
VH: EVQLVESGGGLVKPGGSLRLSCAASGFTFSRYGMSWVRQAPGKGLEWVATISSGGSYTYYTDSVKGRFTISRDNAKNSLYLQMNSLRAEDTAVYYCERHGGDGYWYFDVWGQGTMVTVSS
VL: DIQMTQSPSSLSASVGDRVTITCRASQDISNYLNWYQQKPGKAVKLLIYYTSRLHSGVPSRFSGSGSGTDYTLTISSLQPEDFATYFCQQGNPLRTFGGGTKVEIKR
notes: also called HuTailMab; TP-21958
B3: humanized anti-tail monoclonal antibody, heavy chain SEQ ID NO: 4 and light chain SEQ ID NO: 12 (antibody, V domains shown)
VH: B2 VH
VL: DIVMTQSPATLSLSPGERATLSCRASQDISNYLNWYQQKPGQAVRLLIYYTSRLHSGIPARFSGSGSGTDYTLTISSLEPEDFAVYFCQQGNPLRTFGGGTKVEIKR
notes: also called H10213 (11E7.C7 Humanized HC1) + L10215 (11E7.C7 Humanized LC3)
B4: humanized anti-tail monoclonal antibody, heavy chain SEQ ID NO: 6 and light chain SEQ ID NO: 10 (antibody, V domains shown)
VH: B2 VH with K13Q, G16R, A23T, S78I, R87K, A88T
VL: B2 VL
notes: also called H10215 (11E7.C7 Humanized HC3) + L10213 (11E7.C7 Humanized LC1)
B5: humanized anti-tail monoclonal antibody, heavy chain SEQ ID NO: 5 and light chain SEQ ID NO: 10 (antibody, V domains shown)
VH: B2 VH with A49S
VL: B2 VL
notes: also called H10214 (11E7.C7 Humanized HC2) + L10213 (11E7.C7 Humanized LC1)
B6: humanized anti-tail monoclonal antibody, heavy chain SEQ ID NO: 4 and light chain SEQ ID NO: 11 (antibody, V domains shown)
VH: B2 VH
VL: B2 VL with F87Y
notes: also called H10213 (11E7.C7 Humanized HC1) + L10214 (11E7.C7 Humanized LC2)
B7: humanized anti-tail monoclonal antibody, heavy chain SEQ ID NO: 5 and light chain SEQ ID NO: 11 (antibody, V domains shown)
VH: B2 VH with A49S
VL: B2 VL with F87Y
notes: also called H10214 (11E7.C7 Humanized HC2) + L10214 (11E7.C7 Humanized LC2)
B8: humanized anti-tail monoclonal antibody, heavy chain SEQ ID NO: 6 and light chain SEQ ID NO: 11 (antibody, V domains shown)
VH: B2 VH with K13Q, G16R, A23T, S78I, R87K, A88T
VL: B2 VL with F87Y
notes: also called H10215 (11E7.C7 Humanized HC3) + L10214 (11E7.C7 Humanized LC2)

How the values were obtained:
[1] = target: T1, native IHFNTHI (integration host factor …); experiment: SPR Biacore 3000, IHFNTHI immobilized, HuMab as analyte
[2] = target: T2, tip-chimeric peptide IhfA5-mIhfB4NTHI; experiment: SPR Biacore 3000, peptide immobilized, HuMab as analyte
[3] = target: T1, native IHFNTHI (integration host factor …); experiment: SPR Biacore 3000, HuMab immobilized, IHFNTHI as analyte
[4] = target: T2, tip-chimeric peptide IhfA5-mIhfB4NTHI; experiment: SPR Biacore 3000, HuMab immobilized, peptide as analyte
[5] = target: T2, tip-chimeric peptide IhfA5-mIhfB4NTHI; experiment: direct ELISA #2, peptide coated (curves reaching equilibrium)
[6] = target: T2, tip-chimeric peptide IhfA5-mIhfB4NTHI; experiment: direct ELISA #1, peptide coated (curves not reaching equilibrium)
[7] = target: T3, tail-chimeric peptide IhfA3-IhfB2NTHI; experiment: SPR Biacore 3000, peptide immobilized, HuMab as analyte
[8] = target: T1, native IHFNTHI (integration host factor …); experiment: SPR Biacore 3000, HuMab immobilized, IHFNTHI as analyte; remark: listed apart in the source
[9] = target: T3, tail-chimeric peptide IhfA3-IhfB2NTHI; experiment: SPR Biacore 3000, HuMab immobilized, peptide as analyte
[10] = target: T3, tail-chimeric peptide IhfA3-IhfB2NTHI; experiment: direct ELISA #2, peptide coated (curves reaching equilibrium)
[11] = target: T3, tail-chimeric peptide IhfA3-IhfB2NTHI; experiment: direct ELISA #1, peptide coated (curves not reaching equilibrium)

| Binder | Kd [7] [nM] | koff [7] [s⁻¹] | kon [7] [M⁻¹ s⁻¹] | Kd [8] [nM] | koff [8] [s⁻¹] | kon [8] [M⁻¹ s⁻¹] | Kd [9] [nM] | koff [9] [s⁻¹] | kon [9] [M⁻¹ s⁻¹] | EC50 [10] [µg/mL] | EC50 [11] [µg/mL] | also measured |
| --- | --- | --- | --- | --- | --- | --- | --- | --- | --- | --- | --- | --- |
| B1 | – | – | – | – | – | – | – | – | – | – | – | Kd [1]: 354 nM; koff [1]: 0.00015 s⁻¹; kon [1]: 420 M⁻¹ s⁻¹; Kd [2]: 13 nM; koff [2]: 0.00028 s⁻¹; kon [2]: 22000 M⁻¹ s⁻¹; Kd [3]: 9 nM; koff [3]: 0.00059 s⁻¹; kon [3]: 70000 M⁻¹ s⁻¹; Kd [4]: 257 nM; koff [4]: 7.7e-05 s⁻¹; kon [4]: 300 M⁻¹ s⁻¹; EC50 [5]: 0.0402 µg/mL; EC50 [6]: 0.055 µg/mL |
| B2 | 4.3 | 0.00064 | 150000 | ~5.6 | 0.00043 | 77000 | 29.6 | 0.00033 | 11000 | 0.0427 | 0.01 | – |
| B3 | 5.1 | 0.00056 | 110000 | – | – | – | – | – | – | 0.0404 | 0.012 | – |
| B4 | 2.5 | 0.00046 | 180000 | 18 | 0.00073 | 25000 | 72 | 0.0013 | 18000 | 0.0274 | 0.013 | – |
| B5 | 6.1 | 0.00082 | 130000 | ~3.6 | 0.00057 | 160000 | 60 | 0.00029 | 4800 | 0.0367 | 0.007 | – |
| B6 | 4.9 | 0.00068 | 140000 | ~5.3 | 0.00053 | 100000 | 62.2 | 0.00027 | ~4300 | 0.0408 | 0.011 | – |
| B7 | 6.2 | 0.00076 | 120000 | ~4.4 | 0.00061 | 140000 | 47 | 0.00027 | 5700 | 0.0339 | 0.014 | – |
| B8 | 1 | 0.00016 | 160000 | ~14.8 | 0.00068 | 46000 | 67 | 0.0013 | 33000 | 0.028 | 0.011 | – |
